Experimental findings from paper PMC8899823 (Science translational medicine, 2022) are described below.

Assay [1] concerns the target SARS-CoV-2 RBD (SARS-CoV-2, UniProt P0DTC2). Put plainly: ELISA. (In general: In an ELISA, binding on a coated surface is turned into a signal by an enzyme label.)
Assay [2] has as its target bat RsSHC014 spike protein (Bat SARS-like coronavirus RsSHC014, UniProt U5WLK5). The experiment in a line: ELISA.

B1: DH1047 IgG (antibody, V domains shown)
VH: QVQLVQSGAEVKKPGASVQVSCQASANTFTNHYIHWVRQAPGQGLEWMGIIYPTGGNTIYAQGFQGRVTMTRDTSLNTIYLELSSLRSEDTAVYYCARDVRVDDSWSGYDLLSGGTYFDYWGQGTLVTVSS
VL: not shown
With B1, the binding result in assay [1] and in assay [2] was “binds” throughout.
